Data on two molecules can be found in publication PMC11698917 (Nature Communications, 2025).

The target in data set [1] is T1, human VANGL2, full-length (FL), purified (human, UniProt Q9ULK5 1-521).
T1 sequence (looked up): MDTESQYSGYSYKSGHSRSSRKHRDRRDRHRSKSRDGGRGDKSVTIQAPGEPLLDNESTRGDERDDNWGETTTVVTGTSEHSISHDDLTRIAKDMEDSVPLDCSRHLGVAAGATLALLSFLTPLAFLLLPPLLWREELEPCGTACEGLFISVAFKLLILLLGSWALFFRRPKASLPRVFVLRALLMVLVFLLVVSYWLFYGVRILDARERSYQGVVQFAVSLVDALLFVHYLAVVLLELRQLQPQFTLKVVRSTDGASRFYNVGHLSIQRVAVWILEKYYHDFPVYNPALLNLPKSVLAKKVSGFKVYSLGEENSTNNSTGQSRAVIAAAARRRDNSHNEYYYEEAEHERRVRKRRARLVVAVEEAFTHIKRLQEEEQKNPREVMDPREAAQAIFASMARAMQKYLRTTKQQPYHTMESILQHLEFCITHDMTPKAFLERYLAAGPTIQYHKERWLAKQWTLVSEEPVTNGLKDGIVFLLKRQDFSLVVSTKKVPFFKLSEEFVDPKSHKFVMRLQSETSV
In words: cryo-EM structure.

The data set “AUC” deals with the molecule itself. Briefly: AUC.

Values joined by “and” are separate entries in the source; they are usually repeats but may differ in a detail not shown here. Equal entries are not always repeated.

For NPGMNRFLGLYGEDDDSWCSSSSSSSDSEEEGYFLGQPIPQPRPQR (peptide, UniProt Q96MT3 745-790, looked up) [PK1^745-790 peptide, purified from E. coli], the binding result in data set [1] was “binds”.

B1: human VANGL1, full-length (FL), purified (natural protein, UniProt Q8TAA9 1-524, looked up)
chain: MDTESTYSGYSYYSSHSKKSHRQGERTRERHKSPRNKDGRGSEKSVTIQPPTGEPLLGNDSTRTEEVQDDNWGETTTAITGTSEHSISQEDIARISKDMEDSVGLDCKRYLGLTVASFLGLLVFLTPIAFILLPPILWRDELEPCGTICEGLFISMAFKLLILLIGTWALFFRKRRADMPRVFVFRALLLVLIFLFVVSYWLFYGVRILDSRDRNYQGIVQYAVSLVDALLFIHYLAIVLLELRQLQPMFTLQVVRSTDGESRFYSLGHLSIQRAALVVLENYYKDFTIYNPNLLTASKFRAAKHMAGLKVYNVDGPSNNATGQSRAMIAAAARRRDSSHNELYYEEAEHERRVKKRKARLVVAVEEAFIHIQRLQAEEQQKAPGEVMDPREAAQAIFPSMARALQKYLRITRQQNYHSMESILQHLAFCITNGMTPKAFLERYLSAGPTLQYDKDRWLSTQWRLVSDEAVTNGLRDGIVFVLKCLDFSLVVNVKKIPFIILSEEFIDPKSHKFVLRLQSETSV
Regarding B1, the “stoichiometry N” value in “AUC” is ~6 and 3.

The stoichiometry N is a count of units in the complex or per binding partner.
